This data set in a line: yeast display, Sf9 membrane polyspecificity reagent, FACS + sequencing; frameworks hold sequencing errors. The gist of the method:
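Nanobodies from a synthetic yeast display library (Saccharomyces cerevisiae BJ5465), induced 36–48 hours with galactose, were stained 1 hour at 4 °C with 10% biotinylated, detergent-solubilized Sf9 membrane reagent, enriched on streptavidin microbeads, then FACS-sorted. Anti-HA (expression) and streptavidin (reagent binding) fluorescence set low and high (top ~1%) gates. Polyreactivity labels come from the gate of origin. Genes were colony-PCR amplified, MiSeq 2 × 250 sequenced and filtered by CDR length.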
As to “QVHLVESGGGLVKAGGSLRLSCAASGRTFYKYAKGWYRQAPGKEREFVADISSRGGSTYYEDSVKGRFTISRDNAKNTLYLQMNSLKPEDTAVYYCNSRRNSVRYNYWGQGTQVTVSS”, the “polyreactivity (PSR sort gate)” value is recorded as “high polyreactivity”.

As for “QVQLVESGGGLVQAGGSLRLSCAASGSIFGKYAMGWYRQAPGKERELVAAISWSGGSTYYADSVKGRFTISRDNAKNTVYLQMNSLKPEDTAVYYCAATFRGTFRRIWTDTRAYDYWGQGTQVTVSS”, the “polyreactivity (PSR sort gate)” value was “high polyreactivity”.

As to “QVQLVESGGGLVKAGGSLRLSCAASGSIFLTYAMGWNRQAPGKERELVAAITQSGGSTYYADSVKGRFTISRDNAKNTVYLQMNSLKPEDTAVYYCAADVFGPQYWWYDYWGQGTQVTVSS”, the “polyreactivity (PSR sort gate)” value is reported as “low polyreactivity”.

Consider “QVQLVESGGRLVQAGGSLRLSCAASGFIFVDYAMGWYRQAPGKERELVAAITYDGGSTYYADSVKGRFTISRDNAKNTVYLPMNSLKPEDTAVYYCATQGLWIFVVVEMDYWGQGTQVTVSS”, for which the “polyreactivity (PSR sort gate)” value was “low polyreactivity”.

Regarding “QVQLVESGGCLVQAGGSLRLSCAASGITYLEYAMGWYIQAPGKERELVATINSGGSTNYADSVKGRFTISRDNAKNTVYLQMNSLKPEDTAVYYCAAVVSDYVWRYEYWGQGTQVTVSS”, the “polyreactivity (PSR sort gate)” value is “low polyreactivity”.

With “QVQLVESGGGLVQAGGSLRLSCAASGIIFSRNVMGWYRPAPGKERELVAVISGSGGSTYYADSVKGRFTISRDNAKNTVYLQMNSLKPEDSAVYYCAASYEYLWGYDYEYWGQGTQVTVSS”, the “polyreactivity (PSR sort gate)” value is given as “high polyreactivity”.

For the sequence “QVQLVESGGGLVQAGGSLRLSCAASGLIFRYYAMGWYRQAPGKERELVASISWHGGSTNYADSVKGRFTISRDNAKNTVYLQMNSLKPEDTAVYYCAADAWVATTILHDYWGQGTQVTVSS”, the “polyreactivity (PSR sort gate)” value is listed as “high polyreactivity”.

For “QVQLVESGGGLVQAGGSLRLSCDASGSIFGSYVMGWSRQAPGKERELVAAISSSGASTYYADSVKGRFTISRDNAKNTVYLQMNSLKPEDTAVYYCATTRRPYVRGYPHYYWGQGTQVTVSS”, the “polyreactivity (PSR sort gate)” value was “high polyreactivity”.

Consider “QVQLVESGGGLVQAGGSLRLSCAASGRIVANAMGWYRQAPGKERELVAAISWSGGRTFYADSVKGRFTISRDNAKNTVYLQMNSLKPEDSAVYYCNARGPVYARYDYCGQGTQVTVSS”, for which the “polyreactivity (PSR sort gate)” value is listed as “low polyreactivity”.

With “QVQLVESGGGLVQPGGSLRLSCAASGRTYYINAMGWYRQAPGKERELVATISKSGGSTNYADSEKGRFTISRDNAMNTFYLQMNSLKPEDTAVYYCAADTSGGSWGRGRWKFGYWGQGTQVTVSS”, the “polyreactivity (PSR sort gate)” value is listed as “high polyreactivity”.

“QVQLVESGRGLVQAGGSLRLSCAASGFTFRNYAMGWYRQAPGKERELVAAITRRGGSTYYADSVKGRFTISRDNAKNTVYLQMNSLKTEDTAVYYCNADREVPWGKDNLDYWGQGTQVTVSS”: the “polyreactivity (PSR sort gate)” value is on record as “high polyreactivity”.

On to “QVQLVESGGGLVQAGGSLRLSCAASGRTFRNNAMGWYRQAPGKERELDAAIKGSGGSTYYADSVKGRFTISRDNAKNTVYLQMNSLKPEDTAVYYCAKAVVPWGPNFRPNHTRGYYWGQGTQATVSS”, for which the “polyreactivity (PSR sort gate)” value is given as “low polyreactivity”.

For “QVQLVESGGGLVQAGGSLRLSCAASGFTFSRYAMGWYRQAPGKERELVAAITSRGGSTYYADSVKGRFTISRDNAKNTVYLQMNSLKPEDTAVYYCAARGWYATWLYYYWGQGTQVTVSS”, the “polyreactivity (PSR sort gate)” value is given as “high polyreactivity”.

For “QVQLVESGGGLVQAGGSLRLSCAASGRTFDWNAMGWYRQAPGKERELVAAITYSGGGTYYADSVKGRFTISRDNAKNTVYLQMNSLKPEDTAVYYCAAGYPGTWSYYYWGQGTQVTVSS”, the “polyreactivity (PSR sort gate)” value is given as “low polyreactivity”.

In the case of “QVQLVESGGGLVQARGSLRLSCAPSGSIFDHNAMGWYRQAPGKESEFVAAISSSGGSTNYADSVKGRFTISRDIAKNTVYLQMNSLKPEDTAVYYCAAYPDRYVELGYWGQGTQVTVSS”, the “polyreactivity (PSR sort gate)” value was “low polyreactivity”.

Regarding “QVQLVESGGGLVQAGGSLRLSCAASRSIFYSYALGWSRQAPGKEREWVADITITGSTYYADSVKGRFTISRDNAKNTVYLQMKSLKSEDTAVYFCNAVLAPGGYAYWGQGTQVTVSS”, the “polyreactivity (PSR sort gate)” value is listed as “low polyreactivity”.

Take “QVQLVESGGGLVQAGGSLRLSCAASGSTFPFYALGWYRQAPGKERELVAVIRGSGGRTYYADSVKGRFTISRDNAKTTVYLQMNSLKPEDTAVYYCAVKLARLYDSGYNYWGQGTQVTVSS”: the “polyreactivity (PSR sort gate)” value was “high polyreactivity”.

“QVQLVESGGGLVQAGGSLRLSCAASGITFIVNAMGWYRQAPGKERELVARITTSGGSTSYADSVKGRFTISRDNAKYTVYLQMYSLKPEDSAVYYCAADRGGYYSEYDYWGQGTQVTVSS”: the “polyreactivity (PSR sort gate)” value is listed as “low polyreactivity”.

As to “QFQLVESGGGLVQAGGSLRLSCAASGFIFKSNAMGWYRQAPGKERELVAAITKRGGSTYYADSVKGRFTISGDYAKNTVYLQMNSLKPEDTAVYYCAVRKPYSRYTVNYDSWGQGTQVTVSS”, the “polyreactivity (PSR sort gate)” value is listed as “high polyreactivity”.

With “QVQLVESGGGLVQAGGSLRLSCAASGFNLRRNAMGWYRQAPGKERELVAAITSSGGRTTYADSVKGRFTISRDNAKNTVYLQMNSLKPEDTAVYYCAADFHVDYDYWGQGTQVTVSS”, the “polyreactivity (PSR sort gate)” value is recorded as “high polyreactivity”.

Regarding “QVQIVESGGGLVQAGGSLRLSCAASGRTFRYYTMGWYIQAPGKERELVAVISRSGGSTYYADSVKGRFTISRDNAKNTVYLQMNSLKPEDTAVYYCNAGYWRFIDSYDYWGPGTQVTVSS”, the “polyreactivity (PSR sort gate)” value is listed as “high polyreactivity”.

“QVQLVESGGGLVQAGGSLRLSCAASGSTFHPNAMGWYRQAPGKERELVAISSGDDTYYADSVKGRFTISRDIAKNTVYLQMKSLKPEDTAVYYCAAEYSFIYYWGQGTQVTVSS”: the “polyreactivity (PSR sort gate)” value is reported as “low polyreactivity”.

Regarding “QVQLVESGGGLVQAVGSLRLSCAASGLIFKKYAMGWYRQAPGKERELVATITSRGGSTYYADSVKGRFTISRDNAKNTVYLQMNSLKPEDTAVYYCAARFGFYTAYTYNYWGQGTQVTVSS”, the “polyreactivity (PSR sort gate)” value was “high polyreactivity”.

For “QVQLVESGGGLVQAGGSLRLSCAASGRIFHANAMGWYRQAPGKERELVAGISRNGGRTYYADSVKGRFTISRDNAKNTVYLQMNSLKPEDSAVYYCNALHWHSNELDYYWGQGTQVTVSS”, the “polyreactivity (PSR sort gate)” value was “high polyreactivity”.

“QVQLVESGGGLVQGGGSLRLSCAASGRTFAPNAMGWYRQAPGKERELVAAISYNSGTTYYADSVKGRFTISRDNAKNTVYLQMNSLKPEDTAVYYCAAGHWVGPYQAMEYWGQGTQVTVSS”: the “polyreactivity (PSR sort gate)” value is “high polyreactivity”.

As to “QVQLVESGGGLVQAGGSLRLSCAASGFTFWLYAMGWYRQAPGKERELVAAITSGGGTYYADSVKGRFTISRDNEKNTVYLQMNSLKPEDTAVYYCAAEWVRDYEQGVSSFGFYYWGQGTQVTVSS”, the “polyreactivity (PSR sort gate)” value is “low polyreactivity”.

Turning to “QVQLVESGGGLVQAGGSLRLSCAASGRILGYYAMGWYRQAPGKERELVAAITYSGGSTYYADSVKGRFTISRDNAKNTVYLQMNSLKPEDTAVYYCAADKWLLGLYGSTWNDYWGQGTQVTVSS”, the “polyreactivity (PSR sort gate)” value is “low polyreactivity”.

“QVQLVESGGGLVQAGGSLRLSCDDSGGIFQENAMGWYTQAPGKERELVATSTRSTGSTYYADSVKGRFTISRDTAKNTVYLQMNSLKPEDTAVYYCAARRLSQYYRYAYKYDYWGQVTQVTVSS”: the “polyreactivity (PSR sort gate)” value was “high polyreactivity”.

For “QVQLVESGGGLVQAGGSLRLSCAAYGSIFSENAMGWYRQAPGKEWELVADITDGGGSTYYADSVKGRFTISRDNAKNPVYLQMNSLKPDDTAVYYCNAQIFFFAPWYYEYDYWGQCTQVTVSS”, the “polyreactivity (PSR sort gate)” value is reported as “low polyreactivity”.

Turning to “QVQLVESGGGLVQAGGSLRLSCAASGSTFGYNGLGWYRQAPGKERELVAAISGGARTYADSVKGRFTISRDNAKNTVYLQMNSLKPEDTSVYYCAADSPVSVTADDGYWGQGTQVTVSS”, the “polyreactivity (PSR sort gate)” value was “low polyreactivity”.

On to “QVQLVESGGGLVQAGGSLRLSCAASGSIFSDNAMGWYRQAPGKERELVAAITYSGGRTSYADSVKGRFTISRDNAKNTVYLQMNSLKPEDTAVYYCAVGSHSRSSNSYYYWGQGTQVTVSS”, for which the “polyreactivity (PSR sort gate)” value is on record as “low polyreactivity”.

As for “QVQLVESGGGLVQAGCSLGLSCAASGRIVDYKAMGWYRQAPGKEWELVATLTSSSVRTHYPDSLKGRFSISRDNAKNTVYLQMNSLNPEDTSVYYWNAAYGPRYPRRYDYWGQGTQVTVSS”, the “polyreactivity (PSR sort gate)” value is given as “low polyreactivity”.

“QVQLVESGGGLVQAGGSLRLSCAASGGTFIRYAMALYRQAPGKERELVADITSSGDSTYYADSVKGRFTISRDNAKNTVYLPMNSLITEDTAVYYCATTHDYWLWGMGYWGQGTQVTVSS”: the “polyreactivity (PSR sort gate)” value is given as “high polyreactivity”.

In the case of “QVQLVEAGGGLVQAGGSLRLSCAASGSTFPYNARGWYSQAPGKDRELVAAMTSAGGTNYADSVKGRFTISRDNATNTVYLQMNSLKPEDTAVYYCAADGSGYYDWYYYWGQGTQVTVSS”, the “polyreactivity (PSR sort gate)” value was “low polyreactivity”.

Regarding “QVQLVESGGGLVQAGGSLRLTCAASGRTFKYYAMGWYRQAPGKERELVAAITRSGGNTYYADSVKGRFTISRDNAKNTVYLQMNSLKPEDTAVYYCAKRLGYRYPTYDYWGQGTQVSVSS”, the “polyreactivity (PSR sort gate)” value is on record as “high polyreactivity”.

On to “QVQLVESGGGLVQAGGSLRLSCAASGSTFYIYVMGWYRQAPGKERELVARISSSGGSTYYADSVKGRFTISRDNAKNTVYLQMNSLKPEDTAVYYCNVDYGAWYDYWGQGTQVTVSS”, for which the “polyreactivity (PSR sort gate)” value is given as “low polyreactivity”.

As for “QVQLVESGGGLVQAGGSLRLSCAASGRISKYNAMGWYRQAPGKERELVAAINQRGTSTYYADSVKGRFTISRDNEMNTVYLQMNSLKPEDTAVYYCATTGYRFYLMDYWGQGTQVTVSS”, the “polyreactivity (PSR sort gate)” value is on record as “low polyreactivity”.

On to “QVQLVESGGGLVQAGGSLRLSCAASGRTFGYNAMGWYRQAPGKERQLVAAINWSGASTYYADSVKGRFTISRDNAKNTVYLQMNSLKPEDTAVYYCAADYSYIYGFDYWGQGTQVTVSS”, for which the “polyreactivity (PSR sort gate)” value was “low polyreactivity”.

Turning to “QVQLVESGGGLVQAGGSLRLSCAASGRTFDANAMGWYRPAPGKERELVAAISSDGSTNYADSVKGRFTISRDNAKNTVYLQMNSLKPEDTAVYYCATDGKPLIRYDYDYWGQGTQVTVSS”, the “polyreactivity (PSR sort gate)” value is given as “high polyreactivity”.

Take “QLQLVESGGGLVQAGGSLRLSCAASGYTIIQYAMGWYRQAPGKERELVAGITWSGGSTYADSVKGRFSISRDNAKNTVYLQMNSLKPEDTAVYYCAADDRDIYQYGTPYGSGIRYDYWGQGTQVTVSS”: the “polyreactivity (PSR sort gate)” value was “low polyreactivity”.

Regarding “QVQLVESGGGLVQAGGSLRLSCAASGLTFYSNAMGWYRQAPGKERELVARISTGGSTYADSVKGRFTISRDNAKNTVYLQMNSLKPVDTAVYYCAVDGWDDTYFRQDMDYWGQGTQVTVSS”, the “polyreactivity (PSR sort gate)” value was “low polyreactivity”.
